Assay results published in patent US20200190197A1 (REMD BIOTHERAPEUTICS, published 2020).
Substitutions are numbered along the chain they refer to.

B1: AS01814 (humanized full-length IgG) (antibody, V domains shown)
VH: QVQLVQSGSELKKPGASVKVSCKASGYTFTSYSINWVRQAPGKGLEWVAYFYVGNGYTDYNEKFKGRVTITADESTSTAYMELSSLRSEDTAVYYCARGGLPYYFDYWGQGTLVTVSS
VL: DIQMTQSPSTLSASVGDRVTITCKTSQDVNTAVAWYQQKPGKAPKLLLYWASTRHTGIPARFSGSGSGTEFTLTISSLQSEDFAVYYCQQHYNTPLTFGGGTKLEIKR
notes: Full-length IgG expressed in HEK293 cells, protein A purified
B2: murine-human chimeric antibody derived from murine PDL1#10 (Chimeric IgG) (antibody, V domains shown)
VH: EVQLQQSGAELVRPGSSVKMSCKTSGYTFTSYSINWVKQRPGQGLEWIAYFYVGNGYTDYNEKFKGKATLTSDTSSSTAYMQLSSLTSEDSAIYFCARGGLPYYFDYWGQGTTLTVSS
VL: DIVMTQSHKFMSTSVGDRVSITCKTSQDVNTAVAWYQQKPGHSPKLLFYWASTRHTGVPDRFTGGGSGTDYTLTISSVQAEDLALYYCQQHYNTPLTFGAGTRLELKR
notes: also called mouse-human chimeric antibody
B3: AS01790 (humanized full-length IgG) (antibody, V domains shown)
VH: EVQLVQSGAEVKKPGESLKISCKGSGYSFTSYSINWVRQMPGKGLEWMGYFYVGNGYTDYNEKFKGRVTMTRNTSISTAYMELSSLRSEDTAVYYCARGGLPYYFDYWGQGTLVTVSS
VL: B1 VL with L48I, I58V, A60S, S80P, V85T
notes: as for B1
B4: AS02013 (humanized full-length IgG) (antibody, V domains shown)
VH: B3 VH with M40A
VL: B1 VL with M4L, T10S, K42Q, K45R, L48I, I58V, A60S, E70D, S80P, V85T
notes: as for B1
B5: AS01824 (humanized Fab) (Fab, V domains shown)
VH: B1 VH
VL: EIVMTQSPATLSVSPGERATLSCKTSQDVNTAVAWYLQKPGQSPQLLIYWASTRHTGVPSRFSGSGSGTDYTLTISSLQPEDFATYYCQQHYNTPLTFGGGTKLEIK
notes: Purified humanized Fab
B6: murine-human chimeric Fab (from mAb PDL1#10) (Fab, V domains shown)
VH: B2 VH
VL: B2 VL
B7: AS02013 (humanized Fab) (Fab, V domains shown)
VH: B3 VH with M40A
VL: DIQLTQSPSSLSASVGDRVTITCKTSQDVNTAVAWYQQKPGQAPRLLIYWASTRHTGVPSRFSGSGSGTDFTLTISSLQPEDFATYYCQQHYNTPLTFGGGTKLEIK
notes: Purified humanized Fab
B8: AS01814 (humanized Fab) (Fab, V domains shown)
VH: B1 VH
VL: B7 VL with L4M, S10T, Q42K, R45K, I48L, V58I, S60A, D70E, P80S, T85V
notes: Purified humanized Fab
B9: AS01825 (humanized Fab) (Fab, V domains shown)
VH: B1 VH with V2M, S9A, L11V, P14T, A16S, A40M, V48M, A49G
VL: B7 VL with S10F, Q42K, R45K, F83V
notes: Purified humanized Fab
B10: AS02002 (humanized Fab) (Fab, V domains shown)
VH: B1 VH with V2M, S9A, L11V, P14T, A16S, P41R, K43Q, G44R, V48I, A49G
VL: B7 VL with L4M, G41D, A43S, R45K, Y49K, V58I, S60A, D70E, P80S, T85V
notes: Purified humanized Fab
B11: AS01789 (humanized Fab) (Fab, V domains shown)
VH: EVQLVQSGAEVKKPGESLKISCKGSGYSFTSYSINWVRQAPGQALEWMGYFYVGNGYTDYNEKFKGRVTITRDTSASTAYMELSSLRSEDTAVYYCARGDLPFYFDYWGDGILVTVAS
VL: DIVMTQSPDSLAVSLGERATINCKTSQDVNTAVAWYQQKPGQPPKLLIYWASTRHTGVPDRFSGSGSGTDFTLKISRVEAEDVGVYYCQQHYNTPLTFGGGTKLEIK
notes: Purified humanized Fab
B12: AS01807 (humanized Fab) (Fab, V domains shown)
VH: B1 VH with V48M, A49G, A72R, E74T, T76A
VL: B7 VL with L4M, L11V, G41D, A43S, R45K, Y49K
notes: Purified humanized Fab
B13: AS01978 (humanized Fab) (Fab, V domains shown)
VH: B3 VH with M40A, M70I, R72T, N73D, T74E, I76T
VL: B7 VL with G41D, A43S, R45K, Y49K
notes: Purified humanized Fab
B14: AS01790 (humanized Fab) (Fab, V domains shown)
VH: B3 VH
VL: B7 VL with L4M, S10T, Q42K, R45K, D70E
notes: Purified humanized Fab derived from PDL1#10 (pFASEBA vector, E. coli)
B15: AS01995 (humanized Fab) (Fab, V domains shown)
VH: B3 VH with M40A
VL: B7 VL with L4M, L11V, Q42K, R45K, I48L, F83V
notes: Purified humanized Fab
B16: AS01817 (humanized Fab) (Fab, V domains shown)
VH: B3 VH with M40A, M70I, N73D, I76A
VL: B7 VL with S10F, A43P, R45K
notes: Purified humanized Fab
B17: AS01979 (humanized Fab) (Fab, V domains shown)
VH: B3 VH with M40A
VL: B7 VL with L4M, L11V, A43P, R45K, S60D, P80A, F83V, T85V
notes: Purified humanized Fab

target: T1, His-tagged PD-L1 protein (human, UniProt Q9NZQ7 19-238); test: SPR, Biacore T200, full-length IgG, 1:1 interaction model
T1 construct: also called His-tagged antigen PD-L1 protein; human PD-L1; not shown: His tag
Excerpt: Binding data for each antibody was processed and fitted to 1:1 interaction model using Biacore T200 evaluation software. All experimental data could be well fitted to the model.

T1 sequence (Q9NZQ7 19-238 limits assumed): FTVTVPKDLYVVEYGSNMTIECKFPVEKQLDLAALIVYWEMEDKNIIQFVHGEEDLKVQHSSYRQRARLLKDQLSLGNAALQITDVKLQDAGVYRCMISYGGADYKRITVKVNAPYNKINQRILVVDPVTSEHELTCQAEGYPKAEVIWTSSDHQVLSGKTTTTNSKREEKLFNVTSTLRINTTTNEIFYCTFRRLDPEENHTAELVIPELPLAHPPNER

Row | Kd | koff | kon | Binder
1 | 0.461 nM | 0.000173 s⁻¹ | 376000 M⁻¹ s⁻¹ | B1
2 | 1 nM | 0.000338 s⁻¹ | 336000 M⁻¹ s⁻¹ | B2
3 | 0.769 nM | 0.000253 s⁻¹ | 329000 M⁻¹ s⁻¹ | B3
4 | 0.751 nM | 0.000276 s⁻¹ | 367000 M⁻¹ s⁻¹ | B4

target: T1, His-tagged PD-L1 protein; test: SPR, Biacore T200, multi-cycle; Fab captured on chip, His-tagged PD-L1 as analyte
Method: A combinatorial humanization phage display library was constructed using the heavy chain and light chain variable domain sequences of mAb PDL1#10. Briefly, frameworks of human antibodies with high sequence identities to PDL1#10 were selected and assembled using overlapping PCR. This humanized Fab phage display library was panned against PD-L1 Fc-fusion protein. Individual output phage clones were amplified in 96-deep-well plates and the amplified phage were assayed by ELISA against PD-L1 Fc-fusion protein. […] DNAs encoding the Fab fragments of the output phage were amplified and inserted in pFASEBA vector (Genscript) for the screening of the best humanized antibody clones. Individual Fab clones were expressed in 96-deep-well plates and the crude protein secreted by E. coli to the medium was assayed by ELISA against BSA and the antigen PD-L1 protein for the assessment of expression and binding activity, respectively. Thousands of humanized clones were screened and a number of clones with slower off-rate were identified, amongst which 14 clones with the highest binding affinities were subjected to multi-cycle affinity measurement. The binding affinity of the 14 purified Fabs to His-tagged PD-L1 protein were determined using a Surface Plasmon Resonance (SPR) biosensor, Biacore T200 (GE Healthcare) for multi-cycle affinity measurements. Fabs were immobilized on the sensor chip through capture method. His-tagged antigen PD-L1 protein was used as the analyte. The data of dissociation (kd) and association (ka) rate constants were processed using Biacore T200 evaluation software. The equilibrium dissociation constants (KD) were calculated from the ratio of kd over ka.

Row | Kd | koff | kon | Binder
5 | 0.87 nM | 0.00054 s⁻¹ | 620000 M⁻¹ s⁻¹ | B5
6 | 0.29 nM | 0.00021 s⁻¹ | 730000 M⁻¹ s⁻¹ | B6
7 | 0.38 nM | 0.0002 s⁻¹ | 500000 M⁻¹ s⁻¹ | B7
8 | 0.16 nM | 0.00011 s⁻¹ | 680000 M⁻¹ s⁻¹ | B8
9 | 1.1 nM | 0.00039 s⁻¹ | 360000 M⁻¹ s⁻¹ | B9
10 | 1.5 nM | 0.00042 s⁻¹ | 310000 M⁻¹ s⁻¹ | B10
11 | 1.1 nM | 0.00036 s⁻¹ | 330000 M⁻¹ s⁻¹ | B11
12 | 1.4 nM | 0.00035 s⁻¹ | 260000 M⁻¹ s⁻¹ | B12
13 | 1.6 nM | 0.00045 s⁻¹ | 290000 M⁻¹ s⁻¹ | B13
14 | 0.35 nM | 0.00017 s⁻¹ | 500000 M⁻¹ s⁻¹ | B14
15 | 0.37 nM | 0.00017 s⁻¹ | 450000 M⁻¹ s⁻¹ | B15
16 | 0.93 nM | 0.00032 s⁻¹ | 340000 M⁻¹ s⁻¹ | B16
17 | 0.4 nM | 0.00019 s⁻¹ | 470000 M⁻¹ s⁻¹ | B17
